# Laboratory results published in patent US7838495B2, “Compositions and methods of use of EPB1, and ErbB3 binding protein” (University of Maryland, Baltimore, priority 2007, dated 2010).
# Legend:
# Androgen Regulated Genes = assay: Microarray analysis of EBP1 and vector transfected C81 cells; assay type: cell-based, human; conditions: EBP1 transfected C81 cells vs vector control
# Protocol: Microarray Analysis and Bioinformatics. RNA was prepared using the Trizol Reagent as previously described (8). Microarray processing and data analysis was performed at Genome Explorations (Nashville, Tenn.). U133A oligonucleotide arrays (Affymetrix) containing ˜33,000 full length annotated genes together with additional probe sets designed to represent EST sequences were used for the analysis. Only genes with a minimum expression level of 500 were included in this analysis. […] Oncomine analyses were performed by using Oncomine 3.0 (www.oncomine.org). Real Time Quantitative Reverse-Transcription PCR. Both cell culture samples and a commercial panel of cDNAs from normal prostate and prostate tumors (TissueScan, Origene, Rockville, Md.) were examined. The method of Nakanishi et al. (15) was used as previously described. Real-time quantitative RT-PCR was performed on the LightCycler® (Roche) platform. The following forward and reverse primers were selected using Primer Express software and synthesized by the Core Laboratory of University of Maryland School of Medicine: Ebp1, sense: 5′-GCA CGC CAA TAG AAG G-3′ (SEQ ID NO: 16) and antisense: 5′-GTA AAC GGC ATG GCA TC-3′ (SEQ ID NO: 17) kallikrein-2 sense: 5′-CAT CCA GTC TCG GAT TG-3′ (SEQ ID NO: 18) and antisense: 5′-CTC ATA TTG TAG AGC GGG T-3′ (SEQ ID NO: 19), TSPY, sense: 5′-CAGGGCTTCTCATTCCACTC-3′ (SEQ ID NO: 20) and antisense: 5′-CCATCATATTCAACTCAACAA CTGG-3′ (16; SEQ ID NO: 21), AGR2, sense: 5′-ATTGGCAGAGCAGTTTCTCC-3′ (SEQ ID NO: 22) and antisense, 5′-GAGCTGTATCTGCAGGTTCGT (17; SEQ ID NO: 23) 13-Actin, sense: 5′-GCTATCCAGGCTGTGCTATC-3′ (SEQ ID NO: 24) and antisense 5′-TGT CAC GCA CGA TTT CC-3′ (SEQ ID NO: 25). A SYBR®Green PCR Kit was used as per the manufacturer's instructions (Applied Biosystems, Foster City, Calif.) and the analyses were performed in duplicate or triplicate.
# LNCaP cells [1] = assay: LNCaP xenografts in SCID mice; assay type: in vivo
# Protocol: In Vivo Studies in SCID Mice: Male SCID mice, 4-6 weeks of age, were purchased from the National Cancer Institute (Frederick, Md.). Animals were housed in a pathogen-free environment under controlled conditions of light and humidity and received food and water ad libitum. LNCaP cells were grown in complete medium and 800 μg/ml of G418 until 80% confluent. Cells were scraped into phosphate-buffered saline (PBS), collected by centrifugation, and suspended in Matrigel™ (10 mg/ml) (Collaborative Research, Waltham, Mass.) at 1×10^7 cells/ml. Each mouse received s.c. injections at one site on each flank with 100 μl of cell suspension. Tumors were measured three times a week with calipers, and tumor volumes were calculated by the formula 0.5236×r1^2×r2 (r1<r2). The animal protocols were approved by the Institutional Animal Care and Use Committee at the University of Maryland.
# After sacrifice, tumors were excised and fixed in 10% buffered neutral formalin. Sections of formalin-fixed, paraffin-embedded tissues were cut to 5 μm. Slides were stained with an EPB1 antibody (Upstate) diluted 1:50 using the standard avidin-biotin method (Vector Labs, Burlinghame, Calif.). Peroxidase activity was localized by the diaminobenzidine tetrachloride peroxidase reaction with Harris hematoxylin as a counterstain.
# LNCaP cells [2] = assay: Growth response of LNCaP vector controls and EBP1 transfectants to DHT and bicalutamide; assay type: cell-based, human; conditions: LNCaP EBP1 transfectants (vector controls approximately 70%)
# Protocol: Cell Growth Assays: To measure growth in complete media, cells (2×10^4) were seeded in triplicate in individual wells of 12-well tissue culture plates in RPMI-1640 with 10% FBS and cultured for the indicated number of days. Cells were trypsinized, stained with Trypan Blue (0.4%), and counted in a hemacytometer. For soft agar growth assays, increasing concentrations of cells (as indicated) were plated in 35 mm Petri dishes in complete media and 0.3% Difco Bacto Agar over an 0.5% agar layer. Colonies were counted after 10 days of incubation. For studies assessing the effect of dihydrotestosterone (DHT) on cell growth, cells (2×10^4) were plated in 12-well plates in complete media. After a 24-hour attachment period, the medium was replaced with steroid-free medium [phenol red-free RPMI 1640 and 5% charcoal-stripped FBS (Sigma)] for 48 hours. The final concentration of testosterone in the steroid-reduced media was less than 5 pM. After 48 hours of steroid depletion, cells were re-fed with fresh steroid-reduced medium with or without the indicated concentrations of DHT and/or bicalutamide (10 μM), and total cell numbers were assessed 7 days later.
molecule,measurement,setting,value
"EBP1: ErbB3 binding protein (SEQ ID NO: 2), AR corepressor, here ectopically expressed in cancer cells by stable transfection of an expression plasmid (protein, listed as Homo sapiens, FLAG tag) MSGEDEQQEQTIAEDLVVTKYKMGGDIANRVLRSLVEASSSGVSVLSLCEKGDAMIMEETGKIFKKEKEMKKGIAFPTSISVNNCVCHFSPLKSDQDYILKEGDLVKIDLGVHVDGFIANVAHTFVVDVAQGTQVTGRKADVIKAAHLCAEAALRLVKPGNQNTQVTEAWNKVAHSFNCTPIEGMLSHQLKQHVIDGEKTIIQNPTDQQKKDHEKAEFEVHEVYAVDVLVSSGEGKAKDAGQRTTIYKRDPSKQYGLKMKTSRAFFSEVERRFDAMPFTLRAFEDEKKARMGVVECAKHELLQPFNVLYEKEGEFVAQFKFTVLLMPNGPMRITSGPFEPDLYKSEMEVQDAELKALLQSSASRKTQKKKKKKASKTAENATSGETLEENEAGD","Fold Decrease, AGR2",Androgen Regulated Genes,7.1
same,"Fold Decrease, Androgen regulated serine protease TMPRSS2",Androgen Regulated Genes,4.0
same,"Fold Decrease, Prostate Cancer overexpressed POV",Androgen Regulated Genes,5
same,"Fold Decrease, Prostate Differentiation Factor mRNA",Androgen Regulated Genes,5.4
same,"Fold Decrease, Prostate Specific Antigen",Androgen Regulated Genes,5.5
same,"Fold Decrease, Prostatic Kallikrein 2",Androgen Regulated Genes,5.4
same,"Fold Decrease, TSPY",Androgen Regulated Genes,9.5
same,inoculation sites with tumors on day 20,LNCaP cells [1]; EBP1-transfected LNCaP s.c. in SCID mice (vector controls 35%),10%
same,sites that developed tumors at the end of the study,"LNCaP cells [1]; EBP1-transfected LNCaP s.c. in SCID mice (vector more than 85%), p=0.04",less than 40%
same,average tumor volume at the end of the study,"LNCaP cells [1]; EPB1-transfected LNCaP in SCID mice (vector 1214±168), p=0.0003",268±70 mm^3
same,tumor growth rate,"LNCaP cells [1]; EPB1 transfectants vs vector, all time points, p=0.0001",slower
same,growth inhibition by the withdrawal of androgens,LNCaP cells [2],60%
